Laboratory results reported in patent US20170158762A1 (ANAPTYSBIO, published 2017).
Positions count from the first letter of the chain named. Blank lines part the entries; values can stand above or below the binder they belong to.

Experiments:
[1] = biological target: T1, Monomeric soluble human DDR1-avi-his, APE1469.6 (hDDR1) (human, UniProt Q08345 21-416, limits assumed); assay: SPR (BIACORE T200), antibody captured on anti-human IgG Fc, monomeric DDR1-avi-his as analyte, 25 C, 1:1 fit
T1 construct: also called hDDR1-avi-his; huDDR1; not shown: avi tag and his tag
Experimental: anti-Human IgG (Fc-specific, ≈10,000 RU) (GE Healthcare, Little Chalfont, Buckinghamshire, UK) was immobilized on a BIACORE™[…] chip using EDC-activated amine coupling chemistry. Antibodies (0.5 μg/mL, 50 second capture time at 10 μl/minute) were then captured using this surface to a target capture level of ˜125 RU. Monomeric soluble human DDR1-avi-his was then flowed over captured antibody (300 second association, 600 second dissociation) using a three-fold serial dilution series from 200 nM to 0.27 nM. Runs were performed at 25° C. and HBS-EP+, pH 7.6 buffer was used for all dilutions (Teknova, Hollister, Calif.). Captured antibody and antigen were removed between each cycle using two regeneration steps with 3M MgCl₂ (60 seconds contact time) to ensure a fresh binding surface for each concentration of antigen. The resulting sensorgrams were fit globally using a 1:1 binding model to calculate on- and off-rates (ka and kd, respectively) and dissociation constants as a measure of overall affinity (KD).

[2] = biological target: cell surface DDR1 on T47D cells and 293/DDR1 cells (UniProt Q08345); assay: cell-based or functional assay
[3] = biological target: T1, Monomeric soluble human DDR1-avi-his, …; assay: ELISA on coated hDDR1-avi-his; antibody kept in normal mouse serum (day 0, 1, 4, 7 at 37 C; day 7 at 4 C) or PBS day 0; absorbance 450-540 nm
Experimental: The APE05570 and APE05571 antibodies described in Table 4 were tested for the ability to bind cell surface DDR in mouse serum. The antibodies were incubated in normal mouse serum for 1, 4, or 7 days at 37° C. Varying concentrations of the antibodies were then analyzed for ability to bind to DDR1 by an ELISA assay. Briefly, hDDR1-avi-his was coated on plates at 1 μg/m overnight at 4° C. and washed three times in phosphate buffered saline with Tween (PBST). Plates were then blocked with 3% BSA/PBS (200 μl/well) for one hour. The antibodies were then diluted, added to the washed plates, and incubated for two hours at room temperature. Bound antibodies were detected with goat anti HuIgG-(H+L chain)-horseradish peroxidase (HRP) at a dilution of 1:10,000. After washing the plates, 100 μl of 3,3′,5,5′-tetramethylbenzidine (TMB) substrate was added to detect antibody, and plates were read at 450 nm using a SpectraMax™ microplate reader (Molecular Devices, LLC., Sunnyvale, Calif.).

Chain of cell surface DDR1 on T47D cells and 293/DDR1 cells (Q08345 19-913, stated change not applied): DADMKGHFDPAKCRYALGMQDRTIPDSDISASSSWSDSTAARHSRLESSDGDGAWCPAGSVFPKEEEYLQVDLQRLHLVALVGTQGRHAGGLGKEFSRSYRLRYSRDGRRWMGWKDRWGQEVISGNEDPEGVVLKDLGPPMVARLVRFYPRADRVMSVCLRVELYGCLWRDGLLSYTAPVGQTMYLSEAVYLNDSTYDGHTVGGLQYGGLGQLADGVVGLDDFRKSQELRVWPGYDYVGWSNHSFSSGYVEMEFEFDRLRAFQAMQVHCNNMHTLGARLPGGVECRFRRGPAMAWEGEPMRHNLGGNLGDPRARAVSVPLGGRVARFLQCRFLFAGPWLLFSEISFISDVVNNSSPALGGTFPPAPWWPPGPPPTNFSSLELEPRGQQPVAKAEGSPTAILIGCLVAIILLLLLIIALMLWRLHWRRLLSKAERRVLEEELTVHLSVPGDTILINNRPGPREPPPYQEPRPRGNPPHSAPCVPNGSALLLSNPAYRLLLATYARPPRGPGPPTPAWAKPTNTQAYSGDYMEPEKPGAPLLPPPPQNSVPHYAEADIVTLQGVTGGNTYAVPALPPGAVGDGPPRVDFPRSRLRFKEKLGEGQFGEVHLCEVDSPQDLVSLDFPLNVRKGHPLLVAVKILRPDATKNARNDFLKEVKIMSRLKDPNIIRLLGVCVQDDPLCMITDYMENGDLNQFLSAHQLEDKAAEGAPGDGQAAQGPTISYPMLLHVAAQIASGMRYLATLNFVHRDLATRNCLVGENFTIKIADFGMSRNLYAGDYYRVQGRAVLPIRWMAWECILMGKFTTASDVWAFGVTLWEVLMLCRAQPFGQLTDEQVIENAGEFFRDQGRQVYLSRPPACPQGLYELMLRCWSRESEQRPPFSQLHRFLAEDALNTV
T1 sequence (Q08345 21-416 limits assumed): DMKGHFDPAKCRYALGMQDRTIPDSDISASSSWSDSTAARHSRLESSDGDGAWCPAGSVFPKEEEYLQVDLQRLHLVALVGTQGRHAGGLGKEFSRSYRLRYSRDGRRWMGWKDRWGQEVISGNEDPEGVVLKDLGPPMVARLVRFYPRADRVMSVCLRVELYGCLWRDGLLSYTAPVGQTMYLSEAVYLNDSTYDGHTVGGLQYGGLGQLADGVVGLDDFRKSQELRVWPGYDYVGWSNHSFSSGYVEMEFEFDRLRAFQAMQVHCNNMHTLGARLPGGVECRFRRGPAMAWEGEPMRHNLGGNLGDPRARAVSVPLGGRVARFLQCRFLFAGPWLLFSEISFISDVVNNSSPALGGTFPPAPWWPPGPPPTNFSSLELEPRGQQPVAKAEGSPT

Kd [1]: 43.8 nM
koff [1]: 0.0222 s⁻¹
kon [1]: 507000 M⁻¹ s⁻¹
P-DDR1 IC50 (nM); collagen I-stimulated T47D cells, Phospho-DDR1 ELISA [2]: 27.6 nM
B1: APE05552 (antibody, V domains shown)
VH: EVQLVQSGAEVKKPGESLKISCKGSGYSFTNSYWIGWVRQMPGKGLEWMGMIYPGDSDTRYSPSFQGQVTISSDKSISTAYLQWNSLKASDTAVYYCAKDLAPSAYYDYWGQGTLVTVSS
VL: EIVLTQSPGTLSLSPGERATLSCRASQSVRSSYLAYLAWYQQKPGQAPRLLIYDASSRATGIPDRFSGSGSGTDFTLTISRLEPEDFAVYYCQQYGRLPYTFGQGTRLEIKR
notes: from the stated CDR positions they appear to be variable regions; human IgG (captured with anti-human IgG Fc); also called APE05552.2

Kd [1]: 51.4 nM
koff [1]: 0.0284 s⁻¹
kon [1]: 551000 M⁻¹ s⁻¹
P-DDR1 IC50 (nM); collagen I-stimulated T47D cells, Phospho-DDR1 ELISA [2]: 26.1 nM
B2: APE05551 (antibody, V domains shown)
VH: B1 VH with D108N
VL: B1 VL
notes: from the stated CDR positions they appear to be variable regions; human IgG (captured with anti-human IgG Fc); also called APE05551.2

Kd [1]: 47 nM
koff [1]: 0.0233 s⁻¹
kon [1]: 496000 M⁻¹ s⁻¹
P-DDR1 IC50 (nM); collagen I-stimulated T47D cells, Phospho-DDR1 ELISA [2]: 19.3 nM
EC50 (read off the curve) [3]: ~7 ng/mL
B3: APE05571 (antibody, V domains shown)
VH: B1 VH with N85A, A102T
VL: B1 VL
notes: from the stated CDR positions they appear to be variable regions; human IgG (captured with anti-human IgG Fc); also called APE05571.1
